This is an account of results in ChEMBL document CHEMBL3526019, “Novel cytochrome P450-mediated ring opening of the 1,3,4-oxadiazole in setileuton, a 5-lipoxygenase inhibitor” (Drug Metab Dispos, 2011).

Substrate in series [1]: CC[C@](O)(c1nnc(NCc2ccc3c(-c4ccc(F)cc4)cc(=O)oc3c2)o1)C(F)(F)F
Nature of the series: Activity of rat recombinant CYP3A2 expressed in baculovirus-infected insect cells assessed as enzyme-mediated N-((4-(4-fluorophenyl)-2-oxochroman-7-yl)methyl)-2-((S)-2-hydroxy-2-(trifluoromethyl)butanoyl)hydrazinecarboxamide formation preincubated for 3 mins by Michaelis-Menten equation in presence of NADPH for 10 mins. The format is ADME.

Substrate in series [2]: CC[C@](O)(c1nnc(NCc2ccc3c(-c4ccc(F)cc4)cc(=O)oc3c2)o1)C(F)(F)F
Nature of the series: Activity of rat recombinant CYP1A1 expressed in baculovirus-infected insect cells assessed as enzyme-mediated N-((4-(4-fluorophenyl)-2-oxochroman-7-yl)methyl)-2-((S)-2-hydroxy-2-(trifluoromethyl)butanoyl)hydrazinecarboxamide formation preincubated for 3 mins by Michaelis-Menten equation in presence of NADPH for 10 mins. The format is ADME.

B1: Cytochrome P450 3A2 (Rattus norvegicus) (protein)
chain: MDLLSALTLETWVLLAVILVLLYRLGTHRHGIFKKQGIPGPKPLPFLGTVLNYYKGLGRFDMECYKKYGKIWGLFDGQTPVFAIMDTEMIKNVLVKECFSVFTNRRDFGPVGIMGKAVSVAKDEEWKRYRALLSPTFTSGRLKEMFPIIEQYGDILVKYLKQEAETGKPVTMKKVFGAYSMDVITSTSFGVNVDSLNNPKDPFVEKTKKLLRFDFFDPLFLSVVLFPFLTPIYEMLNICMFPKDSIAFFQKFVHRIKETRLDSKHKHRVDFLQLMLNAHNNSKDEVSHKALSDVEIIAQSVIFIFAGYETTSSTLSFVLYFLATHPDIQKKLQEEIDGALPSKAPPTYDIVMEMEYLDMVLNETLRLYPIGNRLERVCKKDIELDGLFIPKGSVVTIPTYALHHDPQHWPKPEEFHPERFSKENKGSIDPYVYLPFGNGPRNCIGMRFALMNMKLALTKVLQNFSFQPCKETQIPLKLSRQAILEPEKPIVLKVLPRDAVINGA
By Km is commonly meant the concentration of substrate that gives half-maximal velocity. For the protein B1, the Michaelis-Menten constant (Km) in series [1] amounted to 2.2 µM.

B2: Cytochrome P450 1A1 (Rattus norvegicus) (protein)
chain: MPSVYGFPAFTSATELLLAVTTFCLGFWVVRVTRTWVPKGLKSPPGPWGLPFIGHVLTLGKNPHLSLTKLSQQYGDVLQIRIGSTPVVVLSGLNTIKQALVKQGDDFKGRPDLYSFTLIANGQSMTFNPDSGPLWAARRRLAQNALKSFSIASDPTLASSCYLEEHVSKEAEYLISKFQKLMAEVGHFDPFKYLVVSVANVICAICFGRRYDHDDQELLSIVNLSNEFGEVTGSGYPADFIPILRYLPNSSLDAFKDLNKKFYSFMKKLIKEHYRTFEKGHIRDITDSLIEHCQDRRLDENANVQLSDDKVITIVFDLFGAGFDTITTAISWSLMYLVTNPRIQRKIQEELDTVIGRDRQPRLSDRPQLPYLEAFILETFRHSSFVPFTIPHSTIRDTSLNGFYIPKGHCVFVNQWQVNHDQELWGDPNEFRPERFLTSSGTLDKHLSEKVILFGLGKRKCIGETIGRLEVFLFLAILLQQMEFNVSPGEKVDMTPAYGLTLKHARCEHFQVQMRSSGPQHLQA
In the case of B2, in series [2], the Km was 6 µM.
